Reference: the Immune Epitope Database (IEDB)

Legend:
HLA-B*15:01 [1] = test: IEDB peptide-MHC binding, purified MHC/competitive/radioactivity; filed as Kd, often an IC50 or EC50 that approximates it; ≥ and ≤ were set here for values at or beyond the usual limits of such assays
HLA-B*51:01 = test: as above
HLA-B*35:01 = test: as above
HLA-A*24:02 [2] = test: as above
HLA-A*24:02 [3] = test: IEDB peptide-MHC binding, purified MHC/competitive/fluorescence; ≥ and ≤ were set here for values at or beyond the usual limits of such assays; details: source organism: Zaire ebolavirus
HLA-A*02:01 = test: as above; details: source organism: Zaire ebolavirus
HLA-B*15:01 [4] = test: IEDB peptide-MHC binding, purified MHC/competitive/fluorescence; filed as Kd, often an IC50 or EC50 that approximates it; ≥ and ≤ were set here for values at or beyond the usual limits of such assays; details: source organism: Escherichia coli
HLA-B*39:01 = test: as above; details: source organism: Escherichia coli
HLA-A*30:02 = test: IEDB peptide-MHC binding, purified MHC/competitive/radioactivity; filed as Kd, often an IC50 or EC50 that approximates it; ≥ and ≤ were set here for values at or beyond the usual limits of such assays
HLA-A*26:01 [5] = test: IEDB peptide-MHC binding, purified MHC/direct/fluorescence; filed as Kd, often an IC50 or EC50 that approximates it; ≥ and ≤ were set here for values at or beyond the usual limits of such assays; details: source organism: Salmonella enterica subsp. enterica serovar Typhimurium
HLA-B*40:01 = test: IEDB peptide-MHC binding, purified MHC/competitive/radioactivity; filed as Kd, often an IC50 or EC50 that approximates it; ≥ and ≤ were set here for values at or beyond the usual limits of such assays
HLA-A*03:01 = test: as above; details: source organism: SARS coronavirus Tor2
HLA-A*26:01 [6] = test: as above
HLA-A*31:01 = test: as above; details: source organism: SARS coronavirus Tor2
HLA-A*23:01 = test: as above
HLA-A*68:01 = test: as above; details: source organism: SARS coronavirus Tor2
HLA-A*01:01 = test: as above
HLA-A*29:02 = test: as above
HLA-A*11:01 = test: as above; details: source organism: SARS coronavirus Tor2
HLA-A*33:01 = test: as above; details: source organism: SARS coronavirus Tor2
[7] = source organism: Vaccinia virus WR
[8] = source organism: Dengue virus 4 Philippines/H241/1956
[9] = source organism: Dengue virus 2 Jamaica/1409/1983
[10] = source organism: SARS coronavirus Tor2
[11] = source organism: Mammarenavirus brazilense
[12] = source organism: Lymphocytic choriomeningitis virus (strain Armstrong)
[13] = source organism: Mammarenavirus whitewaterense

Q: How did the Kd (HLA-B*15:01 [1]; [7]) turn out when LLHRCIYHY was run?
A: 0.0429 µM

Q: For LPLPWTSGA, which Kd (HLA-B*51:01; source organism: Dengue virus 1 Brazil/97-11/1997) is on record?
A: 0.926 µM

Q: Which Kd (HLA-B*35:01; [8]) does the source give for MAVLFVVTL here?
A: 0.359 µM

Q: For MGLNYKLTF, which Kd (HLA-B*15:01 [1]; [7]) is on record?
A: 3.54 µM

Q: Which Kd (HLA-B*15:01 [1]; [8]) does the source give for QLAMTDTTPF here?
A: 0.00234 µM

Q: What does the source list for QMAMTDTTPF?
A: Kd (HLA-A*24:02 [2]; [9]): 3.56 µM; Kd (HLA-B*15:01 [1]; [9]): 0.00723 µM

Q: Which IC50 (HLA-A*24:02 [3]) does the source give for REPVNATED here?
A: 12.7 µM

Q: What about the IC50 (HLA-A*02:01) of the same sequence?
A: ≥ 383 µM

Q: Which Kd (HLA-B*15:01 [4]) does the source give for RHSDTAKAF here?
A: ≥ 20 µM

Q: And the Kd (HLA-B*39:01)?
A: 0.268 µM

Q: How did the Kd (HLA-B*15:01 [1]; [9]) turn out when RIKQRGILGY was run?
A: 0.0466 µM

Q: And the Kd (HLA-A*30:02; [9])?
A: 0.0204 µM

Q: For RTSFFLWVI, which IC50 (HLA-A*24:02 [3]) is on record?
A: 0.0169 µM

Q: And the IC50 (HLA-A*02:01)?
A: 0.263 µM

Q: Which Kd (HLA-A*26:01 [5]) does the source give for RVKLGLGIM here?
A: 1.3 µM

Q: Which IC50 (HLA-A*24:02 [3]) does the source give for SADSFLLML here?
A: ≥ 177 µM

Q: What about the IC50 (HLA-A*02:01) of the same sequence?
A: ≥ 613 µM

Q: How did the Kd (HLA-B*40:01; [8]) turn out when SETFSMGLL was run?
A: 0.00353 µM

Q: For SLKSLYEAF, which Kd (HLA-B*15:01 [1]; [7]) is on record?
A: 0.0203 µM

Q: With SMMGFKMNY as the sequence, how does the Kd (HLA-A*24:02 [2]; [10]) read?
A: 9.36 µM

Q: What about the Kd (HLA-A*03:01) of the same sequence?
A: 0.00489 µM

Q: What about the Kd (HLA-A*26:01 [6]; [10]) of the same sequence?
A: 3.9 µM

Q: What about the Kd (HLA-A*31:01) of the same sequence?
A: 0.213 µM

Q: And the Kd (HLA-A*23:01; [10])?
A: 7.55 µM

Q: What about the Kd (HLA-A*68:01) of the same sequence?
A: 10.6 µM

Q: And the Kd (HLA-A*30:02; [10])?
A: 0.0103 µM

Q: What about the Kd (HLA-A*01:01; [10]) of the same sequence?
A: 3.96 µM

Q: And the Kd (HLA-A*29:02; [10])?
A: 0.0139 µM

Q: And the Kd (HLA-A*11:01)?
A: 0.0106 µM

Q: And the Kd (HLA-A*33:01)?
A: 0.775 µM

Q: For SPTVEESRTI, which Kd (HLA-B*51:01; source organism: Dengue virus 3 Martinique/1243/1999) is on record?
A: 3.78 µM

Q: Which Kd (HLA-A*24:02 [2]; [10]) does the source give for TLDESFLGRY here?
A: ≥ 70.3 µM

Q: And the Kd (HLA-A*26:01 [6]; [10])?
A: 0.132 µM

Q: What about the Kd (HLA-A*23:01; [10]) of the same sequence?
A: ≥ 70 µM

Q: And the Kd (HLA-A*30:02; [10])?
A: 0.00832 µM

Q: And the Kd (HLA-A*01:01; [10])?
A: 0.00566 µM

Q: And the Kd (HLA-A*29:02; [10])?
A: 0.155 µM

Q: Which Kd (HLA-B*35:01; source organism: Dengue virus 2 Peru/IQT2913/1996) does the source give for VATTFITPM here?
A: 0.146 µM

Q: VDICFWSTL was tested. Which Kd (HLA-A*24:02 [2]; [11]) did it give?
A: 5.63 µM

Q: What about the Kd (HLA-A*26:01 [6]; [11]) of the same sequence?
A: ≥ 77.9 µM

Q: And the Kd (HLA-A*23:01; [11])?
A: 7.57 µM

Q: What about the Kd (HLA-A*30:02; [11]) of the same sequence?
A: 9.76 µM

Q: What about the Kd (HLA-A*01:01; [11]) of the same sequence?
A: 12 µM

Q: What about the Kd (HLA-A*29:02; [11]) of the same sequence?
A: ≥ 78.9 µM

Q: For VEDSRFWEL, which Kd (HLA-B*40:01; [9]) is on record?
A: 4.28 µM

Q: What does the source list for VFFGYFASHF?
A: Kd (HLA-A*24:02 [2]; [10]): 0.00463 µM; Kd (HLA-A*26:01 [6]; [10]): 4.13 µM; Kd (HLA-A*23:01; [10]): 0.000595 µM; Kd (HLA-A*30:02; [10]): 2.82 µM; Kd (HLA-A*01:01; [10]): 12.9 µM; Kd (HLA-A*29:02; [10]): 0.000261 µM

Q: VLYSYILFL was tested. Which Kd (HLA-B*15:01 [1]; source organism: Vaccinia virus Copenhagen) did it give?
A: 0.559 µM

Q: What does the source list for WCSQTSYQYL?
A: Kd (HLA-A*24:02 [2]; [12]): 15.9 µM; Kd (HLA-A*26:01 [6]; [12]): ≥ 69.7 µM; Kd (HLA-A*23:01; [12]): 8.29 µM; Kd (HLA-A*30:02; [12]): ≥ 29.6 µM; Kd (HLA-A*01:01; [12]): 1.04 µM; Kd (HLA-A*29:02; [12]): 19 µM

Q: Which Kd (HLA-A*24:02 [2]; [13]) does the source give for WDIKDPSLL here?
A: ≥ 77.5 µM

Q: What about the Kd (HLA-A*26:01 [6]; [13]) of the same sequence?
A: ≥ 77.9 µM

Q: And the Kd (HLA-A*23:01; [13])?
A: ≥ 77.7 µM

Q: And the Kd (HLA-A*30:02; [13])?
A: ≥ 34.8 µM

Q: And the Kd (HLA-A*01:01; [13])?
A: ≥ 42.3 µM

Q: What about the Kd (HLA-A*29:02; [13]) of the same sequence?
A: ≥ 27.6 µM

Q: WHYDQDHPY was tested. Which Kd (HLA-B*35:01; [9]) did it give?
A: 7.59 µM

Q: And the Kd (HLA-A*30:02; [9])?
A: ≥ 39.3 µM
